Numbering of substitutions follows the chain as printed. Numbers in names are those of the source.
B1: RalGDS ras association (RA) domain expressed from pEXP22/RalGDS as GAL4 AD fusion (other, UniProt Q03386 767-864, looked up, not shown: large carriers)
chain: SSSLPLYNQQVGDCCIIRVSLDVDNGNMYKSILVTSQDKAPTVIRKAMDKHNLDEDEPEDYELLQIISEDHKLKIPENANVFYAMNSAANYDFILKKR
notes: domain: ras association domain; Prey; also called RalGDS wild type
B2: RalGDS RA allele 16, R20M (other, not shown: small tags and cut ends)
chain: YNQQVGDCCIIMVSLDVDNGNMYKSILVTSQDKAPTVIRKAMDKHNLDEDEPEDYELLQIISEDHKLKIPENANVFYAMNSAANYDFILKKR
B3: RalGDS RA allele 2, L66P (other, not shown: small tags and cut ends)
chain: B2 chain with M12R, L58P
notes: also called clone 2
B4: RalGDS RA alleles 6 and 15, K52E (other, not shown: small tags and cut ends)
chain: B2 chain with M12R, K44E
notes: also called clone 6 (RalGDS screen); clone 15
B5: RalGDS RA allele 22, Q67R (other, not shown: small tags and cut ends)
chain: B2 chain with M12R, Q59R
B6: RalGDS RA alleles 3, 8, 27, 30, 35 and 36, L65P (other, not shown: small tags and cut ends)
chain: B2 chain with M12R, L57P
notes: Six clones with the same amino acid change; also called clone 3; clone 8
B7: RalGDS RA allele 23, M50V (other, not shown: small tags and cut ends)
chain: B2 chain with M12R, M42V
B8: RalGDS RA alleles 17 and 19, Y31C (other, not shown: small tags and cut ends)
chain: B2 chain with M12R, Y23C
notes: also called clone 17; clone 19
B9: RalGDS RA allele 4, I77T (other, not shown: small tags and cut ends)
chain: B2 chain with M12R, I69T
B10: Fos (leucine zipper region), negative control prey with Krev1 (other, UniProt P01100 132-211, looked up, not shown: large carriers)
chain: LSPEEEEKRRIRRERNKMAAAKCRNRRRELTDTLQAETDQLEDEKSALQTEIANLLKEKEKLEFILAAHRPACKIPDDLG
notes: domain: leucine zipper region; the only Fos ORF it describes is the leucine zipper region

Biological target: T1, Krev1 (full-length ORF) expressed from pEXP32/Krev1 as GAL4 DBD fusion (rat, UniProt P04386 1-147; P62836 1-184)
T1 construct: Bait; also called Rap1A
Assay: yeast two-hybrid (ProQuest)

Does B1 bind?
Result: binds

Biological target: T1, Krev1 (full-length ORF) expressed from …
Assay: cell-based or functional assay

How did the “3-AT Phenotype (concentration of 3-AT required to inhibit growth under histidine selection, HIS3 reporter)” value turn out when B2 was run?
Its value is 50 mM.

How did the “3-AT Phenotype (concentration of 3-AT required to inhibit growth under histidine selection, HIS3 reporter)” value turn out when B3 was run?
The value was 10 mM.

Which “3-AT Phenotype (concentration of 3-AT required to inhibit growth under histidine selection, HIS3 reporter)” value does the source give for B4 here?
Its value is 10 mM.

How did the “3-AT Phenotype (concentration of 3-AT required to inhibit growth under histidine selection, HIS3 reporter)” value turn out when B5 was run?
Its value is 100 mM.

For B6, which “3-AT Phenotype (concentration of 3-AT required to inhibit growth under histidine selection, HIS3 reporter)” value is on record?
Its value is 10 mM.

With B7 as the binder, how does the “3-AT Phenotype (concentration of 3-AT required to inhibit growth under histidine selection, HIS3 reporter)” value read?
Its value is greater than 100 mM.

For B8, which “3-AT Phenotype (concentration of 3-AT required to inhibit growth under histidine selection, HIS3 reporter)” value is on record?
Its value is 10 mM.

B9 was tested. Which “3-AT Phenotype (concentration of 3-AT required to inhibit growth under histidine selection, HIS3 reporter)” value did it give?
The value was greater than 100 mM.

Biological target: T1, Krev1 (full-length ORF) expressed from …
Assay: yeast two-hybrid; no growth under histidine selection with 10 mM 3-AT, no URA3 activation
Procedure: To confirm the initial mutant phenotypes, plasmid DNA from the 17 mutant alleles and 6 wild type clones was co-transformed into MaV203 with pEXP32-Krev1. Transformants were tested for their ability to activate the URA3 reporter, as well as the HIS3 reporter in the presence of 10 mM, 25 mM, 50 mM or 100 mM 3-AT. All six wild type clones (7, 9, 11, 12, 20 and 21) produced strong URA⁺ and HIS3/100 mM 3-AT⁺ phenotypes, except clone 20. […] Clone 4 (I77T) and 23 (M50V) were the only mutants displaying a strong growth phenotype in the presence of 100 mM 3-AT.

Does B3 bind?
Result: no binding

Does B4 bind?
Result: no binding

Does B6 bind?
Result: no binding

Does B8 bind?
Result: no binding

Biological target: T1, Krev1 (full-length ORF) expressed from …
Assay: yeast two-hybrid negative control, HIS3/3-AT reporter
Procedure: Yeast transformations were performed according to MaV203 competent yeast cell protocol (Invitrogen, Carlsbad, Calif.) using Gateway destination vectors pDEST32 and pDEST 22 (Invitrogen.com). Briefly, 25 μl cells are mixed with 1 μg bait construct (pEXP32-Bait ORF) and 1 μg prey allele library (EXP22-Prey allele library). pEXP32 is an expression construct in which a partner sequence (“bait”) is fused to the GAL4 DBD. pEXP22 is an expression construct in which a target sequence (“prey”) is fused to the GAL4 AD. Next, 180 μl LiAc/PEG solution is added and tube is inverted several times to mix. Incubate at 30° C. for 30 min, add 10 μl DMSO and heat shock at 42° C. for 10 min. Spin down cells at 1800 rpm, resuspend in 1 ml dH2O, serial dilute to 10⁻². Plate 100 μl of dilutions 10⁻¹ and 10⁻² on CSM-LW, and 100 μl undiluted and dilution 10⁻¹ on CSM-LW+5-FOA. Incubate plates at 30° C. for 3-5 five days. Patch colonies from CSM-LW+5-FOA onto CSM-LW (along with positive and negative control patches) and incubate at 30° C. for 2 days. Replica plate onto CSM-LW and CSM-LWH+3-AT (10 mM, 25 mM, 50 mM and 100 mM). […]
In creating the allele library for RalGDS, it was calculated using the guidelines in Materials and Methods that 200,000 individual Kan⁺ clones was sufficient to provide good library representation for the 296 bp ORF. […]

Does B10 bind?
Result: no binding
